Values quoted from earlier work, collected in patent publication US20250304696A1, “METHODS AND COMPOSITIONS FOR TREATING BARTH SYNDROME” (PROVENTION BIO, INC., priority 2021, published 2025).

B1: inebilizumab (antibody, chains of the INN, looked up, V domains shown)
VH: EVQLVESGGGLVQPGGSLRLSCAASGFTFSSSWMNWVRQAPGKGLEWVGRIYPGDGDTNYNVKFKGRFTISRDDSKNSLYLQMNSLKTEDTAVYYCARSGFITTVRDFDYWGQGTLVTVSS
VL: EIVLTQSPDFQSVTPKEKVTITCRASESVDTFGISFMNWFQQKPDQSPKLLIHEASNQGSGVPSRFSGSGSGTDFTLTINSLEAEDAATYYCQQSKEVPFTFGGGTKVEIK
notes: cell depleting agent

Test system: depleted cell types (B cells)
Conditions: patients receiving depleting agents

Time to recover the depleted cell types, up to a year:
ocrelizumab
rituximab
B1
